From US20240200091A1, “USE OF PROTOPORPHYRINOGEN OXIDASE” (BEIJING DABEINONG BIOTECHNOLOGY CO., LTD., priority 2021, published 2024)

B1: PPO11A: nucleotide sequence encoding microbial protoporphyrinogen oxidase PPO11 (SEQ ID NO:11), Arabidopsis thaliana/soybean common codon usage bias (nucleic acid)
DNA: ATGCAAAAAGCTCTTTTCCTCTACAGTTCAAGAGAAGGACAAACAAAGAAAATACTCAACTACATCAAGGAAGAACTATCAGAGTTTGATTGTGAGCTTGCTGATCTTCATCAGATTGAAGATATTGATTTAGCCTTGTATGATCGAGTATTAATAGGCGCAAGCATCCGGTATGGTCACTTGAACAAAAAGCTTTATCAGTTTATTGAGAAGCATGCTGAGCAACTTGCGCTGGCAAAAGCAGCTTTCTTCTGCGTGAATCTCACTGCAAGGAAAGAGGCTCAAGGAAAAGATACTCCGGAAGGTTCTGTTTACATAAAGACGTTTCTGTCCAAGTCTGCTTGGCAACCAAAGTTGATTGGAGTTTTTGCTGGTGCCCTATACTATCCTCGTTACCATTTCTTTGACAAAGTGATGATTAGATTCATCATGTCTTTAACCGGGGGAGAAACTGACACATCAAAAGAAGTTGAGTATACAAATTGGCAGAAAGTCTCGTTGTTTAGTGACAATTTCAAGAAGATGTGA
modifications: The nucleotide sequence of PPO11A
B2: PPO13A: nucleotide sequence encoding microbial protoporphyrinogen oxidase PPO13 (SEQ ID NO:13), Arabidopsis thaliana/soybean common codon usage bias (nucleic acid)
DNA: ATGGCTAAAGCTCTTTTCCTGTACTCATCTAGAGAAGGACAAACAAAGAAGATTCTTCATTACATAGACGAGAAGTTAACTGGGTTTGAGTGTGAACTCGTTGATTTGCACAATGTCGAAACTATTGATTTTTCTCAGTATGATAGAGTCTTAATTGGAGCGTCCATACGATATGGTCATCTCAACAAGAAATTATATCAGTTTATCGACCGTAACCTGAACCAGCTAGAGCAAAGCAAGGTAGCTTTCTTCTGCGTGAATCTCACCGCACGGAAAGAGGATCAAGGAAAAGATACTCCTGAAGGCTCAGCTTACATAAGGAAGTTTCTTATCAAATCGCCTTGGAAACCGACATTGATTGGTGTTTTCGCAGGTGCACTTTACTATCCAAGATATGGGTGGTTTGATAAAACAATGATCAAATTCATCATGAGTATGACTGGTGGAGAAACCGACACGACCAAGGAAGTTGAGTACACAAATTGGGAAAAAGTGGCCTTGTTTGCTGATAAGTTCAAGGAGCTATGA
modifications: The nucleotide sequence of PPO13A

Legend:
Assay type in all cases: in vivo
Details in all cases: 7 DAT, number of plants of 24 per genotype, grades
[1] = tested on: Arabidopsis thaliana T1 plants; test: flumioxazin tolerance of transgenic Arabidopsis thaliana T1 plants (spray, grade of pesticide damage)
Method in brief: (§1)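 T1 lines expressing individual PPO variants, control-vector and wild-type plants (24 per genotype) were sprayed 18 days after sowing: oxyfluorfen 180/720, saflufenacil 25/100, flumioxazin 60/240, sulfentrazone 450/900 g ai/ha, or water. Damage graded 0–3 from injured leaf area at 7 DAT.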

[2] = tested on: Arabidopsis thaliana T1 plants; test: sulfentrazone tolerance of transgenic Arabidopsis thaliana T1 plants (spray, grade of pesticide damage)
Method in brief: as §1

[3] = tested on: Arabidopsis thaliana T1 plants; test: oxyfluorfen tolerance of transgenic Arabidopsis thaliana T1 plants (spray, grade of pesticide damage)
Method in brief: as §1

[4] = tested on: Arabidopsis thaliana T1 plants; test: saflufenacil tolerance of transgenic Arabidopsis thaliana T1 plants (spray, grade of pesticide damage)
Method in brief: as §1

Molecule | The grade of pesticide damage/plant: grade 0 ([1]; flumioxazin 60 g ai/ha (1×)) | The grade of pesticide damage/plant: grade 1 ([1]; flumioxazin 60 g ai/ha (1×)) | The grade of pesticide damage/plant: grade 2 ([1]; flumioxazin 60 g ai/ha (1×)) | The grade of pesticide damage/plant: grade 3 ([1]; flumioxazin 60 g ai/ha (1×)) | The grade of pesticide damage/plant: grade 0 ([1]; flumioxazin 240 g ai/ha (4×)) | The grade of pesticide damage/plant: grade 1 ([1]; flumioxazin 240 g ai/ha (4×)) | The grade of pesticide damage/plant: grade 2 ([1]; flumioxazin 240 g ai/ha (4×)) | The grade of pesticide damage/plant: grade 3 ([1]; flumioxazin 240 g ai/ha (4×)) | The grade of pesticide: grade 0 ([2]; sulfentrazone 450 g ai/ha (1×)) | The grade of pesticide: grade 1 ([2]; sulfentrazone 450 g ai/ha (1×)) | The grade of pesticide: grade 2 ([2]; sulfentrazone 450 g ai/ha (1×)) | The grade of pesticide: grade 3 ([2]; sulfentrazone 450 g ai/ha (1×)) | The grade of pesticide: grade 0 ([2]; sulfentrazone 900 g ai/ha (2×)) | The grade of pesticide: grade 1 ([2]; sulfentrazone 900 g ai/ha (2×)) | The grade of pesticide: grade 2 ([2]; sulfentrazone 900 g ai/ha (2×)) | The grade of pesticide: grade 3 ([2]; sulfentrazone 900 g ai/ha (2×)) | The grade of pesticide damage/plant: grade 0 ([3]; oxyfluorfen 180 g ai/ha (1×)) | The grade of pesticide damage/plant: grade 1 ([3]; oxyfluorfen 180 g ai/ha (1×)) | The grade of pesticide damage/plant: grade 2 ([3]; oxyfluorfen 180 g ai/ha (1×)) | The grade of pesticide damage/plant: grade 3 ([3]; oxyfluorfen 180 g ai/ha (1×)) | also measured
B1 | 24 plant | 0 plant | 0 plant | 0 plant | 20 plant | 4 plant | 0 plant | 0 plant | 24 | 0 | 0 | 0 | 19 | 5 | 0 | 0 | 24 plant | 0 plant | 0 plant | 0 plant | The grade of pesticide damage/plant: grade 0 ([3]; oxyfluorfen 720 g ai/ha (4×)): 21 plant; The grade of pesticide damage/plant: grade 1 ([3]; oxyfluorfen 720 g ai/ha (4×)): 3 plant; The grade of pesticide damage/plant: grade 2 ([3]; oxyfluorfen 720 g ai/ha (4×)): 0 plant; The grade of pesticide damage/plant: grade 3 ([3]; oxyfluorfen 720 g ai/ha (4×)): 0 plant; The grade of pesticide damage/plant: grade 0 ([4]; saflufenacil 25 g ai/ha (1×)): 24 plant; The grade of pesticide damage/plant: grade 1 ([4]; saflufenacil 25 g ai/ha (1×)): 0 plant; The grade of pesticide damage/plant: grade 2 ([4]; saflufenacil 25 g ai/ha (1×)): 0 plant; The grade of pesticide damage/plant: grade 3 ([4]; saflufenacil 25 g ai/ha (1×)): 0 plant; The grade of pesticide damage/plant: grade 0 ([4]; saflufenacil 100 g ai/ha (4×)): 0 plant; The grade of pesticide damage/plant: grade 1 ([4]; saflufenacil 100 g ai/ha (4×)): 24 plant; The grade of pesticide damage/plant: grade 2 ([4]; saflufenacil 100 g ai/ha (4×)): 0 plant; The grade of pesticide damage/plant: grade 3 ([4]; saflufenacil 100 g ai/ha (4×)): 0 plant
B2 | 24 plant | 0 plant | 0 plant | 0 plant | 19 plant | 5 plant | 0 plant | 0 plant | 24 | 0 | 0 | 0 | 23 | 1 | 0 | 0 | 24 plant | 0 plant | 0 plant | 0 plant | The grade of pesticide damage/plant: grade 0 ([3]; oxyfluorfen 720 g ai/ha (4×)): 18 plant; The grade of pesticide damage/plant: grade 1 ([3]; oxyfluorfen 720 g ai/ha (4×)): 6 plant; The grade of pesticide damage/plant: grade 2 ([3]; oxyfluorfen 720 g ai/ha (4×)): 0 plant; The grade of pesticide damage/plant: grade 3 ([3]; oxyfluorfen 720 g ai/ha (4×)): 0 plant; The grade of pesticide damage/plant: grade 0 ([4]; saflufenacil 25 g ai/ha (1×)): 24 plant; The grade of pesticide damage/plant: grade 1 ([4]; saflufenacil 25 g ai/ha (1×)): 0 plant; The grade of pesticide damage/plant: grade 2 ([4]; saflufenacil 25 g ai/ha (1×)): 0 plant; The grade of pesticide damage/plant: grade 3 ([4]; saflufenacil 25 g ai/ha (1×)): 0 plant; The grade of pesticide damage/plant: grade 0 ([4]; saflufenacil 100 g ai/ha (4×)): 0 plant; The grade of pesticide damage/plant: grade 1 ([4]; saflufenacil 100 g ai/ha (4×)): 24 plant; The grade of pesticide damage/plant: grade 2 ([4]; saflufenacil 100 g ai/ha (4×)): 0 plant; The grade of pesticide damage/plant: grade 3 ([4]; saflufenacil 100 g ai/ha (4×)): 0 plant
